Common to all, as to conditions: remark: other sources report otherwise
Assay [1] addresses purified HLA-B*0702 (human). Put plainly: competition radioimmunoassay on purified HLA, radiolabeled standard peptide.
Assay [2] has as its target purified HLA-B*0801 (human). The description is as above.
Assay [3] addresses purified HLA-B*0702 (human). Description: competition solid-phase radioimmunoassay on purified HLA-B7, radiolabeled standard peptide.
Assay [4] addresses purified HLA-B*3501 (human). Put plainly: competition radioimmunoassay on purified HLA, radiolabeled standard peptide.
The target of assay [5] is purified HLA-B*5301 (human). The description is as above.
Assay [6] addresses HLA-B*0702 on T2-B7 cells (human). Description: MHC stabilization assay on T2-B7 cells (flow cytometry), relative to a reference peptide.

With DPRRLVQLL [hTRT peptide p444 (…)], the IC50 was found to be 0.239 µM in assay [1], 0.217 µM in assay [2] and 0.239 µM in assay [3].

Turning to RPSFLLSSL [hTRT peptide p342 (…)], the IC50 in assay [2] worked out at 0.037 µM; in assay [4], 1.02 µM; in assay [5], 2.2 µM.

Regarding RPAEEATSL [hTRT peptide p277 (…)], the RA (relative avidity) in assay [6] is 4.7.

The record behind these values is patent US20090202499A1, “Human Telomerase Reverse Transcriptase Peptides” (priority 2006, published 2009).
